B1: CIgG4E3A1(G4S)3 (Fc fusion)
chain 1: GPPCPPCPAPEFLGGPSVFLFPPKPKDTLMISRTPEVTCVVVDVSQEDPEVQFNWYVDGVEVHNAKTKPREEQFNSTYRVVSVLTVLHQDWLNGKEYKCKVSNKGLPSSIEKTISKAKGQPREPQVYTLPPCQEEMTKNQVSLWCLVKGFYPSDIAVEWESNGQPENNYKTTPPVLDSDGSFFLYSRLTVDKSRWQEGNVFSCSVMHEALHNHYTQKSLSLSLGKGGGGSGGGGSGGGGSDVQLQESGGGLVQAGGSLRLACAASGRTLSSYVVSWFRQAPGKERKFVAAITWSGLSTTYLDSVQGRFTISRDNTKDTVYLQMNSLKPQDTAIYYCAAGPNIPSILRTRESEYAYWGQGTQVTVS
chain 2: GPPCPPCPAPEFLGGPSVFLFPPKPKDTLMISRTPEVTCVVVDVSQEDPEVQFNWYVDGVEVHNAKTKPREEQFNSTYRVVSVLTVLHQDWLNGKEYKCKVSNKGLPSSIEKTISKAKGQPREPQVCTLPPSQEEMTKNQVSLSCAVKGFYPSDIAVEWESNGQPENNYKTTPPVLDSDGSFFLVSRLTVDKSRWQEGNVFSCSVMHEALHNHYTQKSLSLSLGKGGGGSGGGGSGGGGSEVQLLESGGGLVQPGGSLRLSCAASGFTFGNYDMAWVRQAPGKRPEWVSSIDTGGDITHYADSVKGRFTISRDNAKNTLYLQMNSLRPEDTAVYWCATDEEYALGPNEFDYYGQGTLVTVSS
B2: NIgG4E4A1(RS) (Fc fusion)
chain 1: DVQLQESGGGLVQPGGSLRLSCAASGFRFSNYAMRWYRQAPGKEREFVARISSTGFITRYTASVRDRFTISRDNDKNMMYLQLNKLTPQDTAHYYCNAESTDYWGQGTQVTVSRSGPPCPPCPAPEFLGGPSVFLFPPKPKDTLMISRTPEVTCVVVDVSQEDPEVQFNWYVDGVEVHNAKTKPREEQFNSTYRVVSVLTVLHQDWLNGKEYKCKVSNKGLPSSIEKTISKAKGQPREPQVYTLPPCQEEMTKNQVSLWCLVKGFYPSDIAVEWESNGQPENNYKTTPPVLDSDGSFFLYSRLTVDKSRWQEGNVFSCSVMHEALHNHYTQKSLSLSLGK
chain 2: EVQLLESGGGLVQPGGSLRLSCAASGFTFGNYDMAWVRQAPGKRPEWVSSIDTGGDITHYADSVKGRFTISRDNAKNTLYLQMNSLRPEDTAVYWCATDEEYALGPNEFDYYGQGTLVTVSSRSGPPCPPCPAPEFLGGPSVFLFPPKPKDTLMISRTPEVTCVVVDVSQEDPEVQFNWYVDGVEVHNAKTKPREEQFNSTYRVVSVLTVLHQDWLNGKEYKCKVSNKGLPSSIEKTISKAKGQPREPQVCTLPPSQEEMTKNQVSLSCAVKGFYPSDIAVEWESNGQPENNYKTTPPVLDSDGSFFLVSRLTVDKSRWQEGNVFSCSVMHEALHNHYTQKSLSLSLGK
B3: NIgG4E4A1(G4S)1 (Fc fusion)
chain 1: DVQLQESGGGLVQPGGSLRLSCAASGFRFSNYAMRWYRQAPGKEREFVARISSTGFITRYTASVRDRFTISRDNDKNMMYLQLNKLTPQDTAHYYCNAESTDYWGQGTQVTVSGGGGSGPPCPPCPAPEFLGGPSVFLFPPKPKDTLMISRTPEVTCVVVDVSQEDPEVQFNWYVDGVEVHNAKTKPREEQFNSTYRVVSVLTVLHQDWLNGKEYKCKVSNKGLPSSIEKTISKAKGQPREPQVYTLPPCQEEMTKNQVSLWCLVKGFYPSDIAVEWESNGQPENNYKTTPPVLDSDGSFFLYSRLTVDKSRWQEGNVFSCSVMHEALHNHYTQKSLSLSLGK
chain 2: EVQLLESGGGLVQPGGSLRLSCAASGFTFGNYDMAWVRQAPGKRPEWVSSIDTGGDITHYADSVKGRFTISRDNAKNTLYLQMNSLRPEDTAVYWCATDEEYALGPNEFDYYGQGTLVTVSSGGGGSGPPCPPCPAPEFLGGPSVFLFPPKPKDTLMISRTPEVTCVVVDVSQEDPEVQFNWYVDGVEVHNAKTKPREEQFNSTYRVVSVLTVLHQDWLNGKEYKCKVSNKGLPSSIEKTISKAKGQPREPQVCTLPPSQEEMTKNQVSLSCAVKGFYPSDIAVEWESNGQPENNYKTTPPVLDSDGSFFLVSRLTVDKSRWQEGNVFSCSVMHEALHNHYTQKSLSLSLGK
B4: NIgG4E4A1(G4S)2 (Fc fusion)
chain 1: DVQLQESGGGLVQPGGSLRLSCAASGFRFSNYAMRWYRQAPGKEREFVARISSTGFITRYTASVRDRFTISRDNDKNMMYLQLNKLTPQDTAHYYCNAESTDYWGQGTQVTVSGGGGSGGGGSGPPCPPCPAPEFLGGPSVFLFPPKPKDTLMISRTPEVTCVVVDVSQEDPEVQFNWYVDGVEVHNAKTKPREEQFNSTYRVVSVLTVLHQDWLNGKEYKCKVSNKGLPSSIEKTISKAKGQPREPQVYTLPPCQEEMTKNQVSLWCLVKGFYPSDIAVEWESNGQPENNYKTTPPVLDSDGSFFLYSRLTVDKSRWQEGNVFSCSVMHEALHNHYTQKSLSLSLGK
chain 2: EVQLLESGGGLVQPGGSLRLSCAASGFTFGNYDMAWVRQAPGKRPEWVSSIDTGGDITHYADSVKGRFTISRDNAKNTLYLQMNSLRPEDTAVYWCATDEEYALGPNEFDYYGQGTLVTVSSGGGGSGGGGSGPPCPPCPAPEFLGGPSVFLFPPKPKDTLMISRTPEVTCVVVDVSQEDPEVQFNWYVDGVEVHNAKTKPREEQFNSTYRVVSVLTVLHQDWLNGKEYKCKVSNKGLPSSIEKTISKAKGQPREPQVCTLPPSQEEMTKNQVSLSCAVKGFYPSDIAVEWESNGQPENNYKTTPPVLDSDGSFFLVSRLTVDKSRWQEGNVFSCSVMHEALHNHYTQKSLSLSLGK
B5: NIgG4E4A1(G4S)3 (Fc fusion)
chain 1: DVQLQESGGGLVQPGGSLRLSCAASGFRFSNYAMRWYRQAPGKEREFVARISSTGFITRYTASVRDRFTISRDNDKNMMYLQLNKLTPQDTAHYYCNAESTDYWGQGTQVTVSGGGGSGGGGSGGGGSGPPCPPCPAPEFLGGPSVFLFPPKPKDTLMISRTPEVTCVVVDVSQEDPEVQFNWYVDGVEVHNAKTKPREEQFNSTYRVVSVLTVLHQDWLNGKEYKCKVSNKGLPSSIEKTISKAKGQPREPQVYTLPPCQEEMTKNQVSLWCLVKGFYPSDIAVEWESNGQPENNYKTTPPVLDSDGSFFLYSRLTVDKSRWQEGNVFSCSVMHEALHNHYTQKSLSLSLGK
chain 2: EVQLLESGGGLVQPGGSLRLSCAASGFTFGNYDMAWVRQAPGKRPEWVSSIDTGGDITHYADSVKGRFTISRDNAKNTLYLQMNSLRPEDTAVYWCATDEEYALGPNEFDYYGQGTLVTVSSGGGGSGGGGSGGGGSGPPCPPCPAPEFLGGPSVFLFPPKPKDTLMISRTPEVTCVVVDVSQEDPEVQFNWYVDGVEVHNAKTKPREEQFNSTYRVVSVLTVLHQDWLNGKEYKCKVSNKGLPSSIEKTISKAKGQPREPQVCTLPPSQEEMTKNQVSLSCAVKGFYPSDIAVEWESNGQPENNYKTTPPVLDSDGSFFLVSRLTVDKSRWQEGNVFSCSVMHEALHNHYTQKSLSLSLGK
B6: CIgG4E4A1(RS) (Fc fusion)
chain 1: GPPCPPCPAPEFLGGPSVFLFPPKPKDTLMISRTPEVTCVVVDVSQEDPEVQFNWYVDGVEVHNAKTKPREEQFNSTYRVVSVLTVLHQDWLNGKEYKCKVSNKGLPSSIEKTISKAKGQPREPQVYTLPPCQEEMTKNQVSLWCLVKGFYPSDIAVEWESNGQPENNYKTTPPVLDSDGSFFLYSRLTVDKSRWQEGNVFSCSVMHEALHNHYTQKSLSLSLGKRSDVQLQESGGGLVQPGGSLRLSCAASGFRFSNYAMRWYRQAPGKEREFVARISSTGFITRYTASVRDRFTISRDNDKNMMYLQLNKLTPQDTAHYYCNAESTDYWGQGTQVTVS
chain 2: GPPCPPCPAPEFLGGPSVFLFPPKPKDTLMISRTPEVTCVVVDVSQEDPEVQFNWYVDGVEVHNAKTKPREEQFNSTYRVVSVLTVLHQDWLNGKEYKCKVSNKGLPSSIEKTISKAKGQPREPQVCTLPPSQEEMTKNQVSLSCAVKGFYPSDIAVEWESNGQPENNYKTTPPVLDSDGSFFLVSRLTVDKSRWQEGNVFSCSVMHEALHNHYTQKSLSLSLGKRSEVQLLESGGGLVQPGGSLRLSCAASGFTFGNYDMAWVRQAPGKRPEWVSSIDTGGDITHYADSVKGRFTISRDNAKNTLYLQMNSLRPEDTAVYWCATDEEYALGPNEFDYYGQGTLVTVSS
B7: CIgG4E4A1(G4S)1 (Fc fusion)
chain 1: GPPCPPCPAPEFLGGPSVFLFPPKPKDTLMISRTPEVTCVVVDVSQEDPEVQFNWYVDGVEVHNAKTKPREEQFNSTYRVVSVLTVLHQDWLNGKEYKCKVSNKGLPSSIEKTISKAKGQPREPQVYTLPPCQEEMTKNQVSLWCLVKGFYPSDIAVEWESNGQPENNYKTTPPVLDSDGSFFLYSRLTVDKSRWQEGNVFSCSVMHEALHNHYTQKSLSLSLGKGGGGSDVQLQESGGGLVQPGGSLRLSCAASGFRFSNYAMRWYRQAPGKEREFVARISSTGFITRYTASVRDRFTISRDNDKNMMYLQLNKLTPQDTAHYYCNAESTDYWGQGTQVTVS
chain 2: GPPCPPCPAPEFLGGPSVFLFPPKPKDTLMISRTPEVTCVVVDVSQEDPEVQFNWYVDGVEVHNAKTKPREEQFNSTYRVVSVLTVLHQDWLNGKEYKCKVSNKGLPSSIEKTISKAKGQPREPQVCTLPPSQEEMTKNQVSLSCAVKGFYPSDIAVEWESNGQPENNYKTTPPVLDSDGSFFLVSRLTVDKSRWQEGNVFSCSVMHEALHNHYTQKSLSLSLGKGGGGSEVQLLESGGGLVQPGGSLRLSCAASGFTFGNYDMAWVRQAPGKRPEWVSSIDTGGDITHYADSVKGRFTISRDNAKNTLYLQMNSLRPEDTAVYWCATDEEYALGPNEFDYYGQGTLVTVSS
B8: CIgG4E4A1(G4S)2 (Fc fusion)
chain 1: GPPCPPCPAPEFLGGPSVFLFPPKPKDTLMISRTPEVTCVVVDVSQEDPEVQFNWYVDGVEVHNAKTKPREEQFNSTYRVVSVLTVLHQDWLNGKEYKCKVSNKGLPSSIEKTISKAKGQPREPQVYTLPPCQEEMTKNQVSLWCLVKGFYPSDIAVEWESNGQPENNYKTTPPVLDSDGSFFLYSRLTVDKSRWQEGNVFSCSVMHEALHNHYTQKSLSLSLGKGGGGSGGGGSDVQLQESGGGLVQPGGSLRLSCAASGFRFSNYAMRWYRQAPGKEREFVARISSTGFITRYTASVRDRFTISRDNDKNMMYLQLNKLTPQDTAHYYCNAESTDYWGQGTQVTVS
chain 2: GPPCPPCPAPEFLGGPSVFLFPPKPKDTLMISRTPEVTCVVVDVSQEDPEVQFNWYVDGVEVHNAKTKPREEQFNSTYRVVSVLTVLHQDWLNGKEYKCKVSNKGLPSSIEKTISKAKGQPREPQVCTLPPSQEEMTKNQVSLSCAVKGFYPSDIAVEWESNGQPENNYKTTPPVLDSDGSFFLVSRLTVDKSRWQEGNVFSCSVMHEALHNHYTQKSLSLSLGKGGGGSGGGGSEVQLLESGGGLVQPGGSLRLSCAASGFTFGNYDMAWVRQAPGKRPEWVSSIDTGGDITHYADSVKGRFTISRDNAKNTLYLQMNSLRPEDTAVYWCATDEEYALGPNEFDYYGQGTLVTVSS

molecular target: mixture of three Der p 2 specific recombinant human IgE clones H10, H12, P4E (human) (UniProt P01854); test: RBL-SX38 IgE displacement, FACS
Sequence (P01854 other isoform, or with tags, fused parts or gaps): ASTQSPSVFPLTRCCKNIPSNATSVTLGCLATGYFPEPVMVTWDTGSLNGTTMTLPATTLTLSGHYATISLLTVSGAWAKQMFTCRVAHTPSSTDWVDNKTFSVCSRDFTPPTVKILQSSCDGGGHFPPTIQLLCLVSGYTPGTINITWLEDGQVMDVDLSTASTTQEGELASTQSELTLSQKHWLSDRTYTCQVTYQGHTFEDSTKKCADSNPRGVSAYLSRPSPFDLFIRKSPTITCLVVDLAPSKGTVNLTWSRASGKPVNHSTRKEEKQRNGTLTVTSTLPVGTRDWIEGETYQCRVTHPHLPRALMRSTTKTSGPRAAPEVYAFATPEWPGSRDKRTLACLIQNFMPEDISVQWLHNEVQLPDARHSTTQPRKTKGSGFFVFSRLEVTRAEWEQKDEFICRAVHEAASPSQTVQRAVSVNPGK

First: B1
Second: B2
The EC50 of the first is 26-fold higher: 0.162 µM for the first, 0.0062 µM for the second. The second is the more potent here.

B3 and B4 are within 1.5-fold of each other in EC50: 0.017 µM for the first, 0.0164 µM for the second.

Going from B5 to B7, the EC50 rises from 0.036 µM to 0.241 µM (6.7-fold). The first is the more potent here.

B8 gave an EC50 of 0.107 µM.

Going from B1 to B2, the Max effect/effect 1 µM rises from 73% to 90%.

First: B3
Second: B4
The Max effect/effect 1 µM of the first is lower: 97% for the first, 98% for the second.

Compared with B5, B6 is lower in Max effect/effect 1 µM: 92% for the first, 0% for the second.

Compared with B7, B8 is higher in Max effect/effect 1 µM: 87% for the first, 94% for the second.
